Results as given in US20240294646A1.

How the values were obtained:
[1] = target: Soluble FcγRIIb extracellular domain with C-terminal 10×His tag (UniProt P31994); assay: SPR (Protocol 2); ratio of FcγRIIb fold to FcγRIIaR fold over wild-type
[2] = target: Soluble FcγRIIb extracellular domain with C-terminal 10×His tag (UniProt P31994); assay: SPR (Protocol 2): one-armed antibody captured on immobilised HER2, soluble receptor as analyte; fold over wild-type
[3] = target: Soluble FcγRIIaR extracellular domain with C-terminal 10×His tag (UniProt P12318); assay: as above
[4] = target: FcγRIIb (UniProt P31994); assay: SPR; trastuzumab FSA variant against FSA WT v21653
Target sequence in this assay (P31994 43-217): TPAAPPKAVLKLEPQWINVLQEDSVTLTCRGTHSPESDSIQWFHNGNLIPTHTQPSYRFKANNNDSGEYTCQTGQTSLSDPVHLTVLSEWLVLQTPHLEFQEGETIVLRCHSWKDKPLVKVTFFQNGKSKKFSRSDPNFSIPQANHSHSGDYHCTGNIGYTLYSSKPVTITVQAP

[5] = target: FcγRIIaR (UniProt P12318); assay: SPR; trastuzumab FSA variant against FSA WT v21653
[6] = target: FcγRIIb (UniProt P31994); assay: SPR; ratio of IIb-fold to IIaR-fold, FcγRIIaR as comparison receptor
Target sequence in this assay (P31994 43-217): as above

[7] = target: C1q (human) (UniProt P02745); assay: ELISA; antibody coated, human C1q added, signal as % of WT
[8] = target: C1q (human) (UniProt P02745); assay: C1q ELISA, antibody coated
[9] = target: FcγRIIb (UniProt P31994); assay: SPR (Protocol 1); IIb-Fold over IIaR-Fold
Target sequence in this assay (P31994 43-217 limits assumed): as the sequence (P31994 43-217) above

[10] = target: FcγRIIb (UniProt P31994); assay: SPR (Protocol 1), one-armed antibody captured on HER2, receptor as analyte; fold over wild-type
Target sequence in this assay (P31994 43-217 limits assumed): as the sequence (P31994 43-217) above

[11] = target: FcγRIIaR (UniProt P12318); assay: as above

Sequence of Soluble FcγRIIb extracellular domain with C-terminal 10×His tag (P31994 other isoform, or with tags, fused parts or gaps): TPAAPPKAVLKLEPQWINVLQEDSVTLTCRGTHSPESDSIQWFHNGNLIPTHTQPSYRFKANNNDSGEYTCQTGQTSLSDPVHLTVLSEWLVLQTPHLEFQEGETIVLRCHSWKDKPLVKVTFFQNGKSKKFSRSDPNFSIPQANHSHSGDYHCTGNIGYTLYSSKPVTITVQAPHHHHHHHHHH
Sequence of Soluble FcγRIIaR extracellular domain with C-terminal 10×His tag (P12318 other isoform, or with tags, fused parts or gaps): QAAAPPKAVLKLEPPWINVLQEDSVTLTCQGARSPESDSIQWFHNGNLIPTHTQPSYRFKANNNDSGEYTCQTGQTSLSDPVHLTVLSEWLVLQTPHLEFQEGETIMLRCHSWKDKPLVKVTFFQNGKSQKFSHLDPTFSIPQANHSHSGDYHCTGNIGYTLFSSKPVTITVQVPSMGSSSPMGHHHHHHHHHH
Sequence of FcγRIIaR (P12318 34-217): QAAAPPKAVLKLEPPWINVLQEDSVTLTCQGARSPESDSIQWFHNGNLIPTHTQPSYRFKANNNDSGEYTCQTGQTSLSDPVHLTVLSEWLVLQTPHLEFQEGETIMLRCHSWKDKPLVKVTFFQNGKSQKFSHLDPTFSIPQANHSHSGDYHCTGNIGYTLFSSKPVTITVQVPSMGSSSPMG
Sequence of C1q (human) (P02745 23-245 limits assumed, chain 1 of 3): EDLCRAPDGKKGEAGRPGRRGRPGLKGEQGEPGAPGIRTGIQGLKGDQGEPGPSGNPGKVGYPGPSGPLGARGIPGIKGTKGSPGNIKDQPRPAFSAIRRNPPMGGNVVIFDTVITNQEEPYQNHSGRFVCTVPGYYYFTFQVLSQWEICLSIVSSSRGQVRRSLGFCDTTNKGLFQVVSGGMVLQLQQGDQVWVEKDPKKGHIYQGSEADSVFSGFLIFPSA
Sequence of C1q (human) (P02746 28-253 limits assumed, chain 2 of 3, further chain): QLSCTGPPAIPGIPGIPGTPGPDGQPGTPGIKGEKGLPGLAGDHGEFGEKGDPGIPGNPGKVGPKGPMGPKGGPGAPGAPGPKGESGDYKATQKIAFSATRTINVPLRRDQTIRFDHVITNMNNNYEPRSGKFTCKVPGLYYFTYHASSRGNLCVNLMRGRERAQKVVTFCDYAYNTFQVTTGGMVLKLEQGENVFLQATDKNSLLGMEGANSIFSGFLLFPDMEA
Sequence of C1q (human) (P02747 29-245 limits assumed, chain 3 of 3, further chain): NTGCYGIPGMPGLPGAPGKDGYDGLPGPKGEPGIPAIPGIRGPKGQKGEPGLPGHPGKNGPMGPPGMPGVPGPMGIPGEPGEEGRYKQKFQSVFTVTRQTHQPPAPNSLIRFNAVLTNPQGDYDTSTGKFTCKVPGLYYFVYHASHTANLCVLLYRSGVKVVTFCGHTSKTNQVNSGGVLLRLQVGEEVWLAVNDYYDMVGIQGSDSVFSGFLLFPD

Row | IIb-fold (fold change in affinity over wild-type) [4] [fold over WT] | IIaR-fold (fold change in affinity over wild-type) [5] [fold over WT] | IIb Selectivity (IIb-Fold/IIaR-Fold) [6] | C1q Binding (% WT) [7] [% WT] | Substance | further results
1 | – | – | – | – | Variant 19540, Lead 3 (one-armed trastuzumab antibody, heterodimeric IgG1 Fc; A: L234D_G236N_S267A / B: G236D_S239D_V266L_S267A_H268D) | IIb/IIaR Selectivity (IIb-Fold/IIaR-Fold) [1]: 14; IIb-fold (fold change in affinity over wild-type) [2]: 25.4 fold; IIaR-fold (fold change in affinity over wild-type) [3]: 1.8 fold
2 | – | – | – | – | Variant 19585, Lead 2 (one-armed trastuzumab antibody, heterodimeric IgG1 Fc; A: L234F_G236N_H268Q_K274Q_A327G_A330K_P331S / B: L234F_G236D_S239D_V266L_S267A_H268D_K274Q_A327G_A330S_P331S) | IIb/IIaR Selectivity (IIb-Fold/IIaR-Fold) [1]: 12; IIb-fold (fold change in affinity over wild-type) [2]: 49.5 fold; IIaR-fold (fold change in affinity over wild-type) [3]: 4.1 fold
3 | – | – | – | – | Variant 22115 (one-armed trastuzumab antibody, heterodimeric IgG1 Fc; A: L234D_G236N_S267A_H268Q_K274Q_A327G_A330K_P331S / B: G236D_S239D_V266L_S267I_H268D_L234F_K274Q_A327G_A330K_P331S) | IIb/IIaR Selectivity (IIb-Fold/IIaR-Fold) [1]: 5.9; IIb-fold (fold change in affinity over wild-type) [2]: 2.6 fold; IIaR-fold (fold change in affinity over wild-type) [3]: 0.4 fold
4 | – | – | – | – | Variant 22116 (one-armed trastuzumab antibody, heterodimeric IgG1 Fc; A: L234D_G236N_S267A_K326D / B: G236D_S239D_V266L_S267A_H268D_K326D) | IIb/IIaR Selectivity (IIb-Fold/IIaR-Fold) [1]: 12.1; IIb-fold (fold change in affinity over wild-type) [2]: 31.9 fold; IIaR-fold (fold change in affinity over wild-type) [3]: 2.6 fold
5 | – | – | – | – | Variant 22117 (one-armed trastuzumab antibody, heterodimeric IgG1 Fc; A: L234D_G236N_H268Q_K274Q_A327G_A330K_P331S / B: L234F_G236D_S239D_V266L_S267A_H268D_K274Q_A327G_A330S_P331S) | IIb/IIaR Selectivity (IIb-Fold/IIaR-Fold) [1]: 12.7; IIb-fold (fold change in affinity over wild-type) [2]: 28.7 fold; IIaR-fold (fold change in affinity over wild-type) [3]: 2.3 fold
6 | – | – | – | – | Variant 22119 (one-armed trastuzumab antibody, heterodimeric IgG1 Fc; A: L234F_G236N_H268Q_K274Q_A327G_A330K_P331S / B: L234F_G236D_S239D_V266L_S267I_H268D_K274Q_A327G_A330S_P331S) | IIb/IIaR Selectivity (IIb-Fold/IIaR-Fold) [1]: 7.9; IIb-fold (fold change in affinity over wild-type) [2]: 6.2 fold; IIaR-fold (fold change in affinity over wild-type) [3]: 0.8 fold
7 | – | – | – | – | Variant 22120 (one-armed trastuzumab antibody, heterodimeric IgG1 Fc; A: L234F_G236N_H268Q_K274Q_A327G_A330K_P331S_K326D / B: L234F_G236D_S239D_V266L_S267A_H268D_K274Q_A327G_A330S_P331S_K326D) | IIb/IIaR Selectivity (IIb-Fold/IIaR-Fold) [1]: 8.8; IIb-fold (fold change in affinity over wild-type) [2]: 85.8 fold; IIaR-fold (fold change in affinity over wild-type) [3]: 9.7 fold
8 | – | – | – | – | Variant 22131 (one-armed trastuzumab antibody, heterodimeric IgG1 Fc; A: L234F_G236N_S267A / B: G236D_S239D_V266L_S267A_H268D) | IIb/IIaR Selectivity (IIb-Fold/IIaR-Fold) [1]: 10.4; IIb-fold (fold change in affinity over wild-type) [2]: 45.1 fold; IIaR-fold (fold change in affinity over wild-type) [3]: 4.3 fold
9 | 159 | 3 | 47 | 159 | Variant 32254 (trastuzumab FSA; chain A S239H_strat1, chain B D329*I_F328*Y_strat1) (antibody) | –
10 | 476 | 11 | 44 | 201 | Variant 32258 (trastuzumab FSA; chain A A237L_strat1, chain B G330*K_strat1) (antibody) | –
11 | 452 | 14 | 33 | 192 | Variant 32259 (trastuzumab FSA; chain A A237N_strat1, chain B G330*K_strat1) (antibody) | –
12 | 697 | 22 | 31 | 210 | Variant 32262 (trastuzumab FSA; chain A L234T_strat1, chain B G330*K_strat1) (antibody) | –
13 | 557 | 17 | 33 | 146 | Variant 32264 (trastuzumab FSA; chain A L235D_strat1, chain B G330*K_strat1) (antibody) | –
14 | 1120 | 36 | 31 | 224 | Variant 32265 (trastuzumab FSA; chain A S239A_strat1, chain B G330*K_strat1) (antibody) | –
15 | 1150 | 30 | 38 | 219 | Variant 32266 (trastuzumab FSA; chain A S239G_strat1, chain B G330*K_strat1) (antibody) | –
16 | 803 | 25 | 33 | 201 | Variant 32267 (trastuzumab FSA; chain A S239H_strat1, chain B G330*K_strat1) (antibody) | –
17 | 196 | 11 | 18 | -1 | Variant 32270 (trastuzumab FSA; chain A E272Y_strat2, chain B G237L_strat2) (antibody) | –

Row | IIb-fold (fold change in affinity over wild-type) [4] [fold over WT] | IIaR-fold (fold change in affinity over wild-type) [5] [fold over WT] | IIb Selectivity (IIb-Fold/IIaR-Fold) [6] | C1q Binding (% WT) [7] [% WT] | Substance | further results
18 | 251 | 10 | 26 | 3 | Variant 32271 (trastuzumab FSA; chain A G237L_strat2, chain B G237L_strat2) (antibody) | –
19 | 164 | 9 | 18 | 3 | Variant 32272 (trastuzumab FSA; chain A K330T_strat2, chain B G237L_strat2) (antibody) | –
20 | 95 | 4 | 26 | 2 | Variant 32274 (trastuzumab FSA; chain A P329A_strat2, chain B G237L_strat2) (antibody) | –
21 | 94 | 4 | 24 | 3 | Variant 32276 (trastuzumab FSA; chain A P329V_strat2, chain B G237L_strat2) (antibody) | –
22 | 155 | 9 | 17 | 1 | Variant 32278 (trastuzumab FSA; chain A S267A_strat2, chain B G237L_strat2) (antibody) | –
23 | 53 | 3 | 19 | 1 | Variant 32279 (trastuzumab FSA; chain A S267K_strat2, chain B G237L_strat2) (antibody) | –
24 | – | – | – | – | anti-CD19 (4G7) full-size antibody, Fc negative variant (L234A_L235A_D265S) | C1q - Variant Binding Relative to WT (%) [8]: 0.61%; C1q Concentration at Onset of Binding [8]: 29.6 nM
25 | – | – | – | – | anti-CD19 (4G7) full-size antibody, control SELF (S267E_L328F) | EC50 [8]: 0.36 nM
26 | – | – | – | – | anti-CD19 (4G7) full-size antibody, control v12 (symmetrical E233D_G237D_P238D_H268D_P271G_A330R) | C1q - Variant Binding Relative to WT (%) [8]: 6.72%; C1q Concentration at Onset of Binding [8]: 2.84 nM
27 | – | – | – | – | anti-CD19 (4G7) full-size antibody, wild-type CH2 (variant 21653) | EC50 [8]: 0.31 nM
28 | – | – | – | – | anti-CD40 (Chi Lob 7/4) full-size antibody, Fc negative variant (L234A_L235A_D265S) | C1q - Variant Binding Relative to WT (%) [8]: 0%
29 | – | – | – | – | anti-CD40 (Chi Lob 7/4) full-size antibody, control SELF (S267E_L328F) | C1q - Variant Binding Relative to WT (%) [8]: 50.4%; C1q Concentration at Onset of Binding [8]: 0.73 nM; EC50 [8]: 4.73 nM
30 | – | – | – | – | anti-CD40 (Chi Lob 7/4) full-size antibody, control v12 (symmetrical E233D_G237D_P238D_H268D_P271G_A330R) | C1q - Variant Binding Relative to WT (%) [8]: 0%
31 | – | – | – | – | anti-CD40 (Chi Lob 7/4) full-size antibody, wild-type CH2 (variant 21653) | C1q Concentration at Onset of Binding [8]: 0.41 nM; EC50 [8]: 1.49 nM
32 | – | – | – | – | anti-HER2 (trastuzumab) full-size antibody, wild-type CH2 (variant 21653) | C1q Concentration at Onset of Binding [8]: 0.16 nM; EC50 [8]: 0.88 nM
33 | – | – | – | – | variant 16577, one-armed trastuzumab antibody (Scaffold 2), chain A E269K, chain B A327G_A330S_P331S_L234F_H268Q_K274Q | IIb/IIaR Selectivity [9]: 1.26; IIb-Fold (fold affinity over wild-type) [10]: 1.03 fold; IIaR-Fold (fold affinity over wild-type) [11]: 0.82 fold
